Laboratory results as given in paper PMC6642198 (Scientific Reports, 2019).

T1: KCTD1 (full-length, residues 1-257) (human), Q719H9
T1 chain: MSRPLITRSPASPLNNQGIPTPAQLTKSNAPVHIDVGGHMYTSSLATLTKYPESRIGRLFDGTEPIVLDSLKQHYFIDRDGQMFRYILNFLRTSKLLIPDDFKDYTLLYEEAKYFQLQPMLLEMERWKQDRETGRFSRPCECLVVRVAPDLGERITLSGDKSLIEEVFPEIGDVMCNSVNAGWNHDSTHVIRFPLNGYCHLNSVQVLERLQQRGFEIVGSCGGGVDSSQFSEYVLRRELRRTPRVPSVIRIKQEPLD


Legend:
[1] = target: the molecule itself; assay: SEC; analytical size-exclusion chromatography, Superdex 200 10/30, Tris-HCl 20 mM pH 7.8, NaCl 100 mM, glycerol 5%, CHAPS 0.01%, DTT 4 mM; column calibrated with marker proteins; number of chains from apparent over theoretical monomer molecular weight
[2] = target: T1, KCTD1 (full-length, residues 1-257) …; assay: as above; settings: remark: other sources report otherwise

Binder | binding result [1] | also measured
KCTD1 BTB domain (KCTD1^BTB, residues 1-135) (domain or fragment, human, UniProt Q719H9 1-135, looked up, KCTD1, pre-BTB region and BTB domain, residues 1-135; source: E. coli BL21(DE3), purified (His-trap, TEV digestion, Superdex 200); not shown: polyHis, N-terminal, cleaved) MSRPLITRSPASPLNNQGIPTPAQLTKSNAPVHIDVGGHMYTSSLATLTKYPESRIGRLFDGTEPIVLDSLKQHYFIDRDGQMFRYILNFLRTSKLLIPDDFKDYTLLYEEAKYFQLQPMLLEMERWKQDRETGR |  | stoichiometry N [1]: ~4.5
KCTD1 (full-length, residues 1-257), Q719H9 1-257 (natural protein) MSRPLITRSPASPLNNQGIPTPAQLTKSNAPVHIDVGGHMYTSSLATLTKYPESRIGRLFDGTEPIVLDSLKQHYFIDRDGQMFRYILNFLRTSKLLIPDDFKDYTLLYEEAKYFQLQPMLLEMERWKQDRETGRFSRPCECLVVRVAPDLGERITLSGDKSLIEEVFPEIGDVMCNSVNAGWNHDSTHVIRFPLNGYCHLNSVQVLERLQQRGFEIVGSCGGGVDSSQFSEYVLRRELRRTPRVPSVIRIKQEPLD |  | stoichiometry N [2]: 4.5
KCTD1^H74P (full-length KCTD1 with the SEN-causing mutation H74P) (natural protein, human, UniProt Q719H9 1-257, looked up, KCTD1, full-length protein, residues 1-257, disease-causing missense variant H74P; the mutation occurs in families with SEN syndrome; also called KCTD^H74P; source: E. coli BL21(DE3), purified (His-trap, TEV digestion, Superdex 200); not shown: polyHis, N-terminal, cleaved) MSRPLITRSPASPLNNQGIPTPAQLTKSNAPVHIDVGGHMYTSSLATLTKYPESRIGRLFDGTEPIVLDSLKQPYFIDRDGQMFRYILNFLRTSKLLIPDDFKDYTLLYEEAKYFQLQPMLLEMERWKQDRETGRFSRPCECLVVRVAPDLGERITLSGDKSLIEEVFPEIGDVMCNSVNAGWNHDSTHVIRFPLNGYCHLNSVQVLERLQQRGFEIVGSCGGGVDSSQFSEYVLRRELRRTPRVPSVIRIKQEPLD | binds | 
KCTD1^H33P (full-length KCTD1 with the SEN-causing mutation H33P) (natural protein, human, UniProt Q719H9 1-257, looked up, KCTD1, full-length protein, residues 1-257, disease-causing missense variant H33P; the mutation occurs in families with SEN syndrome; also called KCTD^H33P; source: E. coli BL21(DE3), purified (His-trap, TEV digestion, Superdex 200); not shown: polyHis, N-terminal, cleaved) MSRPLITRSPASPLNNQGIPTPAQLTKSNAPVPIDVGGHMYTSSLATLTKYPESRIGRLFDGTEPIVLDSLKQHYFIDRDGQMFRYILNFLRTSKLLIPDDFKDYTLLYEEAKYFQLQPMLLEMERWKQDRETGRFSRPCECLVVRVAPDLGERITLSGDKSLIEEVFPEIGDVMCNSVNAGWNHDSTHVIRFPLNGYCHLNSVQVLERLQQRGFEIVGSCGGGVDSSQFSEYVLRRELRRTPRVPSVIRIKQEPLD | binds | 
KCTD1^D69E (full-length KCTD1 with the SEN-causing mutation D69E) (natural protein, human, UniProt Q719H9 1-257, looked up, KCTD1, full-length protein, residues 1-257, disease-causing missense variant D69E; the mutation occurs in families with SEN syndrome; also called KCTD^D69E; source: E. coli BL21(DE3), purified (His-trap, TEV digestion, Superdex 200); not shown: polyHis, N-terminal, cleaved) MSRPLITRSPASPLNNQGIPTPAQLTKSNAPVHIDVGGHMYTSSLATLTKYPESRIGRLFDGTEPIVLESLKQHYFIDRDGQMFRYILNFLRTSKLLIPDDFKDYTLLYEEAKYFQLQPMLLEMERWKQDRETGRFSRPCECLVVRVAPDLGERITLSGDKSLIEEVFPEIGDVMCNSVNAGWNHDSTHVIRFPLNGYCHLNSVQVLERLQQRGFEIVGSCGGGVDSSQFSEYVLRRELRRTPRVPSVIRIKQEPLD | binds | 
KCTD1^P20S (full-length KCTD1 with the SEN-causing mutation P20S) (natural protein, human, UniProt Q719H9 1-257, looked up, KCTD1, full-length protein, residues 1-257, disease-causing missense variant P20S; the mutation occurs in families with SEN syndrome; also called KCTD^P20S; source: E. coli BL21(DE3), purified (His-trap, TEV digestion, Superdex 200); not shown: polyHis, N-terminal, cleaved) MSRPLITRSPASPLNNQGISTPAQLTKSNAPVHIDVGGHMYTSSLATLTKYPESRIGRLFDGTEPIVLDSLKQHYFIDRDGQMFRYILNFLRTSKLLIPDDFKDYTLLYEEAKYFQLQPMLLEMERWKQDRETGRFSRPCECLVVRVAPDLGERITLSGDKSLIEEVFPEIGDVMCNSVNAGWNHDSTHVIRFPLNGYCHLNSVQVLERLQQRGFEIVGSCGGGVDSSQFSEYVLRRELRRTPRVPSVIRIKQEPLD | binds | 
KCTD1^G62D (full-length KCTD1 with the SEN-causing mutation G62D) (natural protein, human, UniProt Q719H9 1-257, looked up, KCTD1, full-length protein, residues 1-257, disease-causing missense variant G62D; the mutation occurs in families with SEN syndrome; One sentence of the modelling section prints Gly62Glu; everywhere else G62D; also called KCTD^G62D; source: E. coli BL21(DE3), purified (His-trap, TEV digestion, Superdex 200); not shown: polyHis, N-terminal, cleaved) MSRPLITRSPASPLNNQGIPTPAQLTKSNAPVHIDVGGHMYTSSLATLTKYPESRIGRLFDDTEPIVLDSLKQHYFIDRDGQMFRYILNFLRTSKLLIPDDFKDYTLLYEEAKYFQLQPMLLEMERWKQDRETGRFSRPCECLVVRVAPDLGERITLSGDKSLIEEVFPEIGDVMCNSVNAGWNHDSTHVIRFPLNGYCHLNSVQVLERLQQRGFEIVGSCGGGVDSSQFSEYVLRRELRRTPRVPSVIRIKQEPLD | binds | 
KCTD1 C-terminal domain (KCTD1^CTD, residues 134-235) (domain or fragment, human, UniProt Q719H9 134-235, looked up, KCTD1, C-terminal domain, residues 134-235; The sentences on expression host and on TEV removal of the tag list KCTD1, KCTD1^BTB and the point mutants but not KCTD1^CTD; source: recombinantly expressed (pETM11), purified (Superdex 200)) GRFSRPCECLVVRVAPDLGERITLSGDKSLIEEVFPEIGDVMCNSVNAGWNHDSTHVIRFPLNGYCHLNSVQVLERLQQRGFEIVGSCGGGVDSSQFSEYVL |  | stoichiometry N [1]: ~4.5
